Assay results: US20140087995A1 (published 2014)
Numbered stars: 1 amine (or outer) side, 2 acyl side, 3 side chain; on linkers, the order of the positions; unused ones are H or OH. Bridge positions count the residues as written; N and C are the ends. Side chains are listed from the residue outwards. Ends that are not written are not given here. * marks the point of attachment. C20 diacid = O=C(O)CCCCCCCCCCCCCCCCCCC(=O)*; γGlu = O=C(O)[C@H](CCC(=O)[*:2])N[*:1]; AEEA = NCCOCCOCC(=O)O

T1: human calcitonin receptor (human, UniProt P30988 25-474)
T1 construct: whole, on cells; also called hCTR; hCT
T1 sequence (looked up): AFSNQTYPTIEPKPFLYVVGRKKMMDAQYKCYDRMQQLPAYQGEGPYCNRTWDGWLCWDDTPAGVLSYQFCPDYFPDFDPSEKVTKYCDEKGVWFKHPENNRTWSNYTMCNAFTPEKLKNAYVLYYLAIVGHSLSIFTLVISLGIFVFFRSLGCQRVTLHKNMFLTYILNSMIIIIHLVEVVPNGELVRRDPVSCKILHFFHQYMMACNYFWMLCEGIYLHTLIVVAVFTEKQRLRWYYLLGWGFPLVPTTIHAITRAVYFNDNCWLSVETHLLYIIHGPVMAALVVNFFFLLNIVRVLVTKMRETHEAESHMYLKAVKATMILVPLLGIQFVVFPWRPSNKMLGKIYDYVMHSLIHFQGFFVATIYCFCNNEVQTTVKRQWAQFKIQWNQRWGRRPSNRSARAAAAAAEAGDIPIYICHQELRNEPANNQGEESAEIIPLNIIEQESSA

T2: rat calcitonin receptor (rat, UniProt P32214 25-516)
T2 construct: whole, on cells; also called rCTR; rat calcitonin (a) receptor
T2 sequence (looked up): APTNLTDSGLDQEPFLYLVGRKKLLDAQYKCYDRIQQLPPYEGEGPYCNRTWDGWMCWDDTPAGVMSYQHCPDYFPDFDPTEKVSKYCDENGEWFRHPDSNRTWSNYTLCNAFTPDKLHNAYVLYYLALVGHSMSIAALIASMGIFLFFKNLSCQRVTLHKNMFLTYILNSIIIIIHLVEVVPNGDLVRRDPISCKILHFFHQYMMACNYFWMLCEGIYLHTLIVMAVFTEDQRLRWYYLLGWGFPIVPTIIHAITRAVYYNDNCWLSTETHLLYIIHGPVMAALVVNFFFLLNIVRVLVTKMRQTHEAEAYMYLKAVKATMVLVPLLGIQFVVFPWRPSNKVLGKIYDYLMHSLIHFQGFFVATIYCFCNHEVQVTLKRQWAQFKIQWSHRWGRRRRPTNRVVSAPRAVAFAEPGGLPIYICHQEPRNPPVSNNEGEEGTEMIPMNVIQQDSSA

T3: rat amylin receptor (rat calcitonin receptor + rat RAMP 3) (rat, UniProt P32214 25-516; Q9JJ73 23-147)
T3 construct: whole, on cells; also called rAmylin-R; rat amylin 3(a) receptor
T3 sequence (looked up) 1: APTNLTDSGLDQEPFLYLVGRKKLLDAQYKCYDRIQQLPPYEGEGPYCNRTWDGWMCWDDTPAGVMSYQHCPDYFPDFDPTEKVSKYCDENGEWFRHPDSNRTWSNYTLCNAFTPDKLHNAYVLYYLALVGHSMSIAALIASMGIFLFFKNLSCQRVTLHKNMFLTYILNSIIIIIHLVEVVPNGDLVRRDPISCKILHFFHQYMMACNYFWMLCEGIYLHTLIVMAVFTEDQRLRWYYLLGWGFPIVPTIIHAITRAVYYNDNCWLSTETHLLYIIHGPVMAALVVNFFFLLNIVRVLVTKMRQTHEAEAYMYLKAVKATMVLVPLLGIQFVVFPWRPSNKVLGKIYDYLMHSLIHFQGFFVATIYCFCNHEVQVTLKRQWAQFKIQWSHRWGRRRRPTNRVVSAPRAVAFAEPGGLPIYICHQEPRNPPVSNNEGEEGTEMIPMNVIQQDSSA
T3 sequence (looked up) 2: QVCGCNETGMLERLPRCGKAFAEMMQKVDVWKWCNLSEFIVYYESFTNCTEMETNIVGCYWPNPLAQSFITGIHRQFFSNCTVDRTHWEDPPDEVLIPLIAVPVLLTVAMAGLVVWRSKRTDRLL


Legend:
[1] = molecular target: T1, human calcitonin receptor; assay: ratio of binding IC50s: human calcitonin receptor over human amylin receptor (reference)
Description: The resulting pellet was resuspended, homogenized and centrifuged (20.000 rpm, 15 min) in a buffer containing 20 mM Na-HEPES and 0.1 mM EDTA (pH 7.4, buffer 2). The resulting pellet was resuspended in buffer 2 and protein concentration was measured (BCA protein Assay, Pierce). The homogenate was kept cold during the whole procedure. The membranes were kept at −80° C. until use. The assay was performed in a 384 well Optiplate (PerkinElmer) in a total volume of 40 ul. Membranes were mixed with SPA beads. Final concentration of membranes 35 ng/μL final and SPA beads was 0.05 mg/well. Test-compounds were dissolved in DMSO and further diluted in assay buffer (50 mM Hepes, pH 7.4, 1 mM CaCl2, 5 mM MgCl₂, 0.1% OA and 0.02% Tween20). […] The final mixture was incubated with shaking at 400 rpm for 120 min at 25° C. prior to centrifugation (1500 rpm, 10 min). Samples were analyzed on TopCounter™ (Packard). The IC₅₀ was calculated using (one site binding competition analysis) GraphPad Prism5 as a measure of receptor affinity.
Membranes were prepared in the following way; the cells were rinsed with PBS and incubated with Versene for approximately 5 min before harvesting. The cells were flushed with PBS and the cell-suspension was centrifuged for 5 min at 1000 rpm. Cells were homogenized (Ultrathurrax) in a buffer containing 20 mM Na-HEPES and 10 mM EDTA (pH 7.4) and centrifuged at 20.000 rpm for 15 min. The resulting pellet was resuspended, homogenized and centrifuged (20.000 rpm, 15 min) in a buffer containing 20 mM Na-HEPES and 0.1 mM EDTA (pH 7.4, buffer 2). The resulting pellet was resuspended in buffer 2 and protein concentration was measured (BCA protein Assay, Pierce). The homogenate was kept cold during the whole procedure. The membranes were kept at −80° C. until use. Assay was performed in a 384 well Optiplate (PerkinElmer) in a total volume of 40 ul. Membranes were mixed with SPA beads.

[2] = molecular target: T2, rat calcitonin receptor; assay: ratio of binding IC50s: rat calcitonin receptor over rat amylin receptor (reference)
[3] = molecular target: T2, rat calcitonin receptor; assay: SPA competition with 125I-calcitonin, membranes of BHK cells with rat calcitonin receptor (Assay VIII)
[4] = molecular target: T3, rat amylin receptor (rat calcitonin …); assay: SPA competition with 125I-rat amylin, membranes of BHK cells with rat calcitonin receptor + rat RAMP3 (Assay VI)

| Ratio hCT/hAmylin binding [1] | Ratio rCT/rAmylin binding [2] | IC50 [3] [nM] | IC50 [4] [nM] | Binder |
| --- | --- | --- | --- | --- |
| 65.3 | 104 | 46.8 | 0.45 | K([AEEA-γGlu-C20 diacid])CNTATCATQRLAHFLRHSSPNFGAIPSSTNVGSNTY-NH2 (disulfide 2-7; N-terminus assumed; SMILES CC[C@H](C)[C@H](NC(=O)[C@H](C)NC(=O)CNC(=O)[C@H](Cc1ccccc1)NC(=O)[C@H](CC(N)=O)NC(=O)[C@@H]1CCCN1C(=O)[C@H](CO)NC(=O)[C@H](CO)NC(=O)[C@H](Cc1c[nH]cn1)NC(=O)[C@H](CCCNC(=N)N)NC(=O)[C@H](CC(C)C)NC(=O)[C@H](Cc1ccccc1)NC(=O)[C@H](Cc1c[nH]cn1)NC(=O)[C@H](C)NC(=O)[C@H](CC(C)C)NC(=O)[C@H](CCCNC(=N)N)NC(=O)[C@H](CCC(N)=O)NC(=O)[C@@H](NC(=O)[C@H](C)NC(=O)[C@@H]1CSSC[C@H](NC(=O)[C@@H](N)CCCCNC(=O)COCCOCCNC(=O)CC[C@H](NC(=O)CCCCCCCCCCCCCCCCCCC(=O)O)C(=O)O)C(=O)N[C@@H](CC(N)=O)C(=O)N[C@@H]([C@@H](C)O)C(=O)N[C@@H](C)C(=O)N[C@@H]([C@@H](C)O)C(=O)N1)[C@@H](C)O)C(=O)N1CCC[C@H]1C(=O)N[C@@H](CO)C(=O)N[C@@H](CO)C(=O)N[C@H](C(=O)N[C@@H](CC(N)=O)C(=O)N[C@H](C(=O)NCC(=O)N[C@@H](CO)C(=O)N[C@@H](CC(N)=O)C(=O)N[C@H](C(=O)N[C@@H](Cc1ccc(O)cc1)C(N)=O)[C@@H](C)O)C(C)C)[C@@H](C)O, synthetic analogue of human amylin; also called compound 69) |
| 247 | 259 | 221 | 0.851 | K([AEEA-γGlu-C20 diacid])CNTATCATQRLAAFLRHSSPNFGAIPSSTPVGSNTY-NH2 (disulfide 2-7; N-terminus assumed; SMILES CC[C@H](C)[C@H](NC(=O)[C@H](C)NC(=O)CNC(=O)[C@H](Cc1ccccc1)NC(=O)[C@H](CC(N)=O)NC(=O)[C@@H]1CCCN1C(=O)[C@H](CO)NC(=O)[C@H](CO)NC(=O)[C@H](Cc1c[nH]cn1)NC(=O)[C@H](CCCNC(=N)N)NC(=O)[C@H](CC(C)C)NC(=O)[C@H](Cc1ccccc1)NC(=O)[C@H](C)NC(=O)[C@H](C)NC(=O)[C@H](CC(C)C)NC(=O)[C@H](CCCNC(=N)N)NC(=O)[C@H](CCC(N)=O)NC(=O)[C@@H](NC(=O)[C@H](C)NC(=O)[C@@H]1CSSC[C@H](NC(=O)[C@@H](N)CCCCNC(=O)COCCOCCNC(=O)CC[C@H](NC(=O)CCCCCCCCCCCCCCCCCCC(=O)O)C(=O)O)C(=O)N[C@@H](CC(N)=O)C(=O)N[C@@H]([C@@H](C)O)C(=O)N[C@@H](C)C(=O)N[C@@H]([C@@H](C)O)C(=O)N1)[C@@H](C)O)C(=O)N1CCC[C@H]1C(=O)N[C@@H](CO)C(=O)N[C@@H](CO)C(=O)N[C@H](C(=O)N1CCC[C@H]1C(=O)N[C@H](C(=O)NCC(=O)N[C@@H](CO)C(=O)N[C@@H](CC(N)=O)C(=O)N[C@H](C(=O)N[C@@H](Cc1ccc(O)cc1)C(N)=O)[C@@H](C)O)C(C)C)[C@@H](C)O, synthetic analogue of human amylin; also called compound 72) |
| 126 | 64.7 | 128 | 1.97 | K([AEEA-γGlu-C20 diacid])CNTATCATQRLARFLRHSSPNFGAIPSSTPVGSNTY-NH2 (disulfide 2-7; N-terminus assumed; SMILES CC[C@H](C)[C@H](NC(=O)[C@H](C)NC(=O)CNC(=O)[C@H](Cc1ccccc1)NC(=O)[C@H](CC(N)=O)NC(=O)[C@@H]1CCCN1C(=O)[C@H](CO)NC(=O)[C@H](CO)NC(=O)[C@H](Cc1c[nH]cn1)NC(=O)[C@H](CCCNC(=N)N)NC(=O)[C@H](CC(C)C)NC(=O)[C@H](Cc1ccccc1)NC(=O)[C@H](CCCNC(=N)N)NC(=O)[C@H](C)NC(=O)[C@H](CC(C)C)NC(=O)[C@H](CCCNC(=N)N)NC(=O)[C@H](CCC(N)=O)NC(=O)[C@@H](NC(=O)[C@H](C)NC(=O)[C@@H]1CSSC[C@H](NC(=O)[C@@H](N)CCCCNC(=O)COCCOCCNC(=O)CC[C@H](NC(=O)CCCCCCCCCCCCCCCCCCC(=O)O)C(=O)O)C(=O)N[C@@H](CC(N)=O)C(=O)N[C@@H]([C@@H](C)O)C(=O)N[C@@H](C)C(=O)N[C@@H]([C@@H](C)O)C(=O)N1)[C@@H](C)O)C(=O)N1CCC[C@H]1C(=O)N[C@@H](CO)C(=O)N[C@@H](CO)C(=O)N[C@H](C(=O)N1CCC[C@H]1C(=O)N[C@H](C(=O)NCC(=O)N[C@@H](CO)C(=O)N[C@@H](CC(N)=O)C(=O)N[C@H](C(=O)N[C@@H](Cc1ccc(O)cc1)C(N)=O)[C@@H](C)O)C(C)C)[C@@H](C)O, synthetic analogue of human amylin; also called compound 64) |
| 140 | 87 | 143 | 1.64 | K([AEEA-γGlu-C20 diacid])CNTATCATQRLARFLRHSSPNFGAIPSSTNVGSNTY-NH2 (disulfide 2-7; N-terminus assumed; SMILES CC[C@H](C)[C@H](NC(=O)[C@H](C)NC(=O)CNC(=O)[C@H](Cc1ccccc1)NC(=O)[C@H](CC(N)=O)NC(=O)[C@@H]1CCCN1C(=O)[C@H](CO)NC(=O)[C@H](CO)NC(=O)[C@H](Cc1c[nH]cn1)NC(=O)[C@H](CCCNC(=N)N)NC(=O)[C@H](CC(C)C)NC(=O)[C@H](Cc1ccccc1)NC(=O)[C@H](CCCNC(=N)N)NC(=O)[C@H](C)NC(=O)[C@H](CC(C)C)NC(=O)[C@H](CCCNC(=N)N)NC(=O)[C@H](CCC(N)=O)NC(=O)[C@@H](NC(=O)[C@H](C)NC(=O)[C@@H]1CSSC[C@H](NC(=O)[C@@H](N)CCCCNC(=O)COCCOCCNC(=O)CC[C@H](NC(=O)CCCCCCCCCCCCCCCCCCC(=O)O)C(=O)O)C(=O)N[C@@H](CC(N)=O)C(=O)N[C@@H]([C@@H](C)O)C(=O)N[C@@H](C)C(=O)N[C@@H]([C@@H](C)O)C(=O)N1)[C@@H](C)O)C(=O)N1CCC[C@H]1C(=O)N[C@@H](CO)C(=O)N[C@@H](CO)C(=O)N[C@H](C(=O)N[C@@H](CC(N)=O)C(=O)N[C@H](C(=O)NCC(=O)N[C@@H](CO)C(=O)N[C@@H](CC(N)=O)C(=O)N[C@H](C(=O)N[C@@H](Cc1ccc(O)cc1)C(N)=O)[C@@H](C)O)C(C)C)[C@@H](C)O, synthetic analogue of human amylin; also called compound 82) |
